For orientation: EC50 means the midpoint of the concentration-response curve.

Experimental findings from US20190177431A1 (FUDAN UNIVERSITY, published 2019) are described below.

The target in assay [1] is T1, human TF on the cell surface of tumor cells (human, UniProt P13726 33-295).
T1 construct: whole, on cells; Endogenous TF on TF-positive human tumor cell lines; also called cell surface TF
The experiment in a line: flow cytometry on HCC1806 cells.

For assay [2], the target named is T1, human TF on the cell surface of tumor …. The experiment in a line: flow cytometry on MDA-MB-231 cells. On the technique in general: A flow cytometer gives signals particle by particle.
The target is the same in assay [3]. Description: flow cytometry on MDA-MB-231 cells, antibody at 1 µg/mL. On the procedure:
(§1) The cells were washed with PBS twice to remove the unbound primary antibody, and the target cells were incubated with 200 μL PE-labeled secondary antibody (2 μg/mL) at 4° C. for 30 min. The cells were washed with PBS twice to remove the unbound secondary antibody, and finally the cells were re-suspended in 400 μL PBS.

In assay [4] the target is T2, extracellular domain of human TF protein (human, UniProt P13726 34-251).
T2 construct: range 34-251; Limits 34-251 are stated for the immunogen; also called the extracellular domain protein of TF; TF antigen
Description: ELISA, coated TF extracellular domain. On the procedure: (§2) The antigen (the extracellular domain protein of TF) was diluted to 0.5 μg/mL with a coating solution, and was used to coat an ELISA plate overnight, at 100 μL/well and 4° C. The excessive antigen was removed by washing. The plate was blocked with 2% BSA at room temperature for 2 h, and then each of the 3-fold serial diluted monoclonal antibodies was added at 100 μL/well, and was incubated for 2 h at room temperature. The unbound antibodies were removed by washing, and an appropriate concentration of horseradish peroxidase-labeled anti-mouse secondary antibody was added at 100 μL/well, and incubated for 1 h at room temperature. The unbound secondary antibody was removed by washing, TMB chromogenic solution was added, and the color was developed to an appropriate color depth. 2M H₂SO₄ was added at 50 μL/well, to stop the chromogenic reaction, the absorbance at 450 nm was then determined, and the data was analyzed.
Firstly, the 20 humanized antibodies were determined for their affinity for the extracellular domain protein of TF by ELISA binding assay (The experimental method refers to Step \textcircled{4} of Example 1).
(ELISA stands for enzyme-linked immunosorbent assay.)

Assay [5] addresses T1, human TF on the cell surface of tumor …. The experiment in a line: flow cytometry on MDA-MB-231 cells, antibody at 10 µg/mL. On the set-up: reference not given here. On the procedure: as §1
The target in assay [6] is T2, extracellular domain of human TF protein. Description: ELISA, coated TF extracellular domain. On the procedure: as §2
The source holds these as a separate data set.

Where a chain is given by its changes, count along the chain named. Read-outs that look alike come from different tables or passages of the source.

B1: TF-mAb-Ch (antibody, V domains shown)
VH: QVQLQQPGAELVRPGASVKLSCKASGYSFISYWMNWVKQRPGQGLEWIGMIYPADSETRLNQKFKDKATLTVDKSSSTAYMQLSSPTSEDSAVYYCAREDYGSSDYWGQGTTLTVSS
VL: EILLTQSPAIIAASPGEKVTITCSASSSVSYMNWYLQKPGSSPKIWIYGISNLASGVPARFSGSGSGTSFSFTINSMETEDVATYYCQQKSSFPWTFGGGTKLEIK
notes: Variable regions of TF-mAb-SC1 cloned into vectors with human IgG1 heavy chain constant region and human kappa constant region; also called human-mouse chimeric antibody; chimeric antibody TF-mAb-Ch
B1: the EC50 in assay [1] was 2.1 nM; in assay [2], 2.3 nM; in assay [4] it was 0.01 nM; in assay [6] it was ~0.011 nM. In addition, the MFI in assay [3] is 3370; in assay [5], 3540.

B2: TF-mAb-H30 (antibody, V domains shown)
VH: EVQLVQSGAEVKKPGESLKISCKGSGYSFTSYWMNWVRQMPGKGLEWMGMIYPADSETRLNQKFKDKATLSVDKSISTAYLQWSSLKASDTAMYYCAREDYGSSDYWGQGTTVTVSS
VL: EIVLTQSPATLSLSPGERATLSCSASSSVSYMNWYQQKPGQAPRIWIYGISNLASGIPARFSGSGSGTDFTLTISSLEPEDFAVYYCQQKSSFPWTFGGGTKVEIK
notes: Humanized
Consider B2, for which the figures for the MFI in assay [3] and in assay [5] were 2930 and 3240, respectively. The EC50 in assay [4] stood at 0.0147 nM.

B3: TF-mAb-H45 (antibody, V domains shown)
VH: B2 VH
VL: EIVLTQSPDFQSVTPKEKVTITCSASSSVSYMNWYQQKPDQSPKIWIYGISNLASGVPSRFSGSGSGTDFTLTINSLEAEDAATYYCQQKSSFPWTFGGGTKVEIK
notes: Humanized
Regarding B3, the values for the MFI in assay [3] and in assay [5] were 3100 and 3480, respectively. In assay [4], this molecule returned an EC50 of 0.0138 nM.

B4: TF-mAb-H38 (antibody, V domains shown)
VH: QVQLVQSGSELKKPGASVKVSCKASGYSFISYWMNWVRQAPGQGLEWIGMIYPADSETRLNQKFKDRAVLSVDKSVSTAYLQICSLKAEDTAVYYCAREDYGSSDYWGQGTTVTVSS
VL: B2 VL with A42S, I57V
notes: Humanized
In the case of B4, the MFI turned out to be 2870 in assay [3] and 3150 in assay [5]. This molecule also showed an EC50 in assay [4] of 0.0178 nM.

B5: TF-mAb-H32 (antibody, V domains shown)
VH: QVQLVQSGAEVKKPGASVKVSCKASGYSFISYWMNWVRQAPGQGLEWIGMIYPADSETRLNQKFKDRATLTVDKSTSTAYMELSSLRSEDTAVYYCAREDYGSSDYWGQGTTVTVSS
VL: B2 VL
notes: Humanized
Regarding B5, the MFI in assay [3] amounted to 2400; in assay [5], 3010. The molecule also came in with an EC50 in assay [4] of 0.0168 nM.

B6: TF-mAb-H40 (antibody, V domains shown)
VH: B2 VH
VL: DIQLTQSPSSLSASVGDRVTITCSASSSVSYMNWYQQKPGKSPKIWIYGISNLASGVPSRFSGSGSGTDFTLTISSLQPEDFATYYCQQKSSFPWTFGGGTKVEIK
notes: Humanized
With B6, the values for the MFI in assay [3] and in assay [5] were 3180 and 3310, respectively. This molecule also came in with an EC50 in assay [4] of 0.0131 nM.

B7: TF-mAb-H46 (antibody, V domains shown)
VH: B2 VH with R38K
VL: B3 VL
notes: Humanized
In the case of B7, the MFI in assay [3] turned out to be 3120; in assay [5], 3410. The molecule also displayed an EC50 in assay [4] of 0.0119 nM.

B8: TF-mAb-H36 (antibody, V domains shown)
VH: B2 VH with R38K
VL: B2 VL with A42S, I57V
notes: Humanized
For B8, the values for the MFI in assay [3] and in assay [5] were 3040 and 3090, respectively. The molecule also yielded an EC50 in assay [4] of 0.0234 nM.

B9: TF-mAb-H31 (antibody, V domains shown)
VH: B2 VH with R38K
VL: B2 VL
notes: Humanized
Take B9: the MFI in assay [3] was 3080; in assay [5] it was 3470. Besides, it took 0.0145 nM to reach a half-maximal effect in assay [4] (EC50).

B10: TF-mAb-H41 (antibody, V domains shown)
VH: B2 VH with R38K
VL: B6 VL
notes: Humanized
Turning to B10, the MFI came to 3000 in assay [3] and 3610 in assay [5]. In assay [4], this molecule gave an EC50 of 0.0134 nM.

B11: TF-mAb-H33 (antibody, V domains shown)
VH: B4 VH
VL: B2 VL
notes: Humanized
On to B11, for which the values for the MFI in assay [3] and in assay [5] were 2420 and 2840, respectively. Further, the EC50 in assay [4] came to 0.0189 nM.

B12: TF-mAb-H35 (antibody, V domains shown)
VH: B2 VH
VL: B2 VL with A42S, I57V
notes: Humanized
Turning to B12, the MFI stood at 2930 in assay [3] and 3020 in assay [5]. Besides, in assay [4], the EC50 amounted to 0.0105 nM.

B13: TF-mAb-H44 (antibody, V domains shown)
VH: B2 VH with K67Q
VL: B3 VL
notes: Humanized; also called humanized antibody TF-mAb-H44
Take B13: the MFI in assay [3] worked out at 3200; in assay [5], 3430. In assay [4], this molecule had an EC50 of 0.012 nM.

B14: TF-mAb-H34 (antibody, V domains shown)
VH: B2 VH with K67Q
VL: B2 VL with A42S, I57V
notes: Humanized
In the case of B14, the MFI in assay [3] came out at 2460; in assay [5] it was 3270. Besides, in assay [4], the midpoint of the response, the EC50, lay at 0.0154 nM.

B15: TF-mAb-H37 (antibody, V domains shown)
VH: B5 VH
VL: B2 VL with A42S, I57V
notes: Humanized
For the molecule B15, the MFI in assay [3] is 2460; in assay [5] it was 2990. Further, in assay [4], the EC50 was found to be 0.0173 nM.

B16: TF-mAb-H39 (antibody, V domains shown)
VH: B2 VH with K67Q
VL: B6 VL
notes: Humanized; also called humanized antibody TF-mAb-H39
In the case of B16, the MFI stood at 3180 in assay [3] and 3380 in assay [5]. This molecule also displayed an EC50 in assay [4] of 0.0125 nM.

B17: TF-mAb-H29 (antibody, V domains shown)
VH: B2 VH with K67Q
VL: B2 VL
notes: Humanized
On to B17, for which the MFI in assay [3] amounted to 2960; in assay [5] it was 3580. The EC50 in assay [4] is 0.0178 nM.

B18: TF-mAb-H42 (antibody, V domains shown)
VH: B5 VH
VL: B6 VL
notes: Humanized
Turning to B18, the values for the MFI in assay [3] and in assay [5] were 2970 and 3350, respectively. Also, in assay [4], the EC50 is 0.0128 nM.

B19: TF-mAb-H47 (antibody, V domains shown)
VH: B5 VH
VL: B3 VL
notes: Humanized
On to B19, for which the MFI in assay [3] stood at 3000; in assay [5], 3150. This molecule also showed an EC50 in assay [4] of 0.013 nM.

B20: TF-mAb-H43 (antibody, V domains shown)
VH: B4 VH
VL: B6 VL
notes: Humanized
Take B20: the MFI in assay [3] was determined as 2820; in assay [5], 3300. The same molecule returned an EC50 in assay [4] of 0.0116 nM.

B21: TF-mAb-H48 (antibody, V domains shown)
VH: B4 VH
VL: B3 VL
notes: Humanized
Regarding B21, the MFI in assay [3] stood at 2610; in assay [5], 2900. The same molecule registered an EC50 in assay [4] of 0.0153 nM.
